Results on one molecule are retold here after PMC11988119.

The target in this experiment is GnRH-AIF chimeric protein. Nature of the experiment: co-IP; anti-AIF antibody (ab32516) on Protein A/G beads; nuclear fractions of Colo205 cells treated with GnRH-AIF (1 µM) or PBS for 24 h; overnight at 4 °C, washed with PBS; blots with anti-ENDOG and anti-AIFM1.

B1: endonuclease G (enzyme)
chain: AELPPVPGGPRGPGELAKYGLPGLAQLKSRESYVLCYDPRTRGALWVVEQLRPERLRGDGDRRECDFREDDSVHAYHRATNADYRGSGFDRGHLAAAANHRWSQKAMDDTFYLSNVAPQVPHLNQNAWNNLEKYSRSLTRSYQNVYVCTGPLFLPRTEADGKSYVKYQVIGKNHVAVPTHFFKVLILEAAGGQIELRTYVMPNAPVDEAIPLERFLVPIESIERASGLLFVPNILARAGSLKAITAGSK
B1 gave a fold increase of co-precipitated ENDOG, cells treated with GnRH-AIF against PBS control of 1.6 fold.
